Results published in the nanobody polyreactivity screen of Harvey et al. (2022).

Assay: yeast display, Sf9 membrane polyspecificity reagent, FACS + sequencing; frameworks hold sequencing errors
Summary of the method: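 Galactose induction of a Saccharomyces cerevisiae BJ5465 synthetic nanobody display library ran 36–48 hours. The cells were then stained for 1 hour at 4 °C with 10% biotinylated, detergent-solubilized Sf9 membrane reagent, pulled down on streptavidin microbeads and FACS-sorted into low and high (top ~1%) gates on expression and reagent-binding fluorescence. Labels for polyreactivity follow the gate of origin.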

| Sequence | polyreactivity (PSR sort gate) |
| --- | --- |
| QVQLVESGGGLVQAGGSLRSSCAASGGTFYGYAMGWYRQAPGKERELVAAISFSGGRTYYADSVKGSFTISRDNAKNTVYLQMNSLKPEDTAVYYCAALRRYPRPNIYGYWGQGTQVTVSS | low polyreactivity |
| QVQLVESGGGLVQAGGSLRLSCAASGGIGSYAMGWYRQAPGKERELVAVITAGGDSTYYADSVKGRFTISRDNAKNTVYLQMNSLKPEDTAVYYCNTVYRSKRYQYDYWGQGTQVTVSS | high polyreactivity |
| QVQLVESGGGLVQAGGSLRLSCAASGFTFDPYAIGWYRQAPGKERELVAAISISGGRTYYADSVKGRITISRDNAKNTVYVQMISLKPEDSAVYYCAVAQSHYFGGYGYWGQGTKVTVSS | low polyreactivity |
| QVQLVESGGGLVQAGGSLRLSCAASGSTLGYNVMGWYRQAPGKERELVAAISGDGSTNYADSVNGRFTMSRDNAKNTVYLQMNSLKPEDTAVYYCNAPFWGYRTSFSYPVVLRFDYWGQGTQVTVSS | low polyreactivity |
| QVQLVESGGGLVQAGGSLRLSCAASGRIFTHNAMGGYRQAPGKERELVAAITIGGRTNYADSVKGRFTISRDNAKYTVYLQMNSLKPEDTAVYYCDRRYGTWNAYDYWGQGTLVTVSS | low polyreactivity |
| QVQLVESGGGLVQAGGSLRLSCAASGSIFEPYAMGWYRQAPGKERELVAGIRKSGATTYYADSVKGRFTISRDNAKNTVYLQMNSLKPEDSAVYYCNAVVKSSSRGSISHPGYDYWGQGTQVTVSS | high polyreactivity |
| QVQLVESGGGLVQAGGSLRLSCAASGSTFASYAMGWYRQAPGKQRELVAAITDSGGSTYYADSVKGRFTISRDNAKNTVYLQMNSLKPEDTAVSYCAAYGRYFSYHDYDYWGQGTQVTVSS | low polyreactivity |
| QVQLVESGGGLVQAGGSLRISSAASGSTFSRYAMGWYRQAPGKERELVAAISWRGGRTYYADSVKGRFTISRDNAKNTVYLQMNSLKPEDTAVYYCNAVSSFTSPRYDYWGQGTQVTVSS | high polyreactivity |
| QVQLVDSGGRLVQAGGSLRLSCSASGIIIPSYAMGWYRQAPGKERELVAAISGRGGRTYYSDSVKGRFTISRDNAKNSVYLQMNSLKPEDTAVYYCAASGTSSSRKSYYWGQGTQVTVSS | high polyreactivity |
| QVQLVESGGGLVQAGGSLRLSCAASGFTFVRNTMGWYRQPPGKETELVAAINRSGGNTYYADSVKGRFTISRDNAKNTVYLQMNCLKPEDTAVYYCAADGFGRRDYYYWGQGTQVTVSS | high polyreactivity |
| QVQLVESGGGLVHAGGSLRLSCAASGRISFYYALGWYRQAPGKERALVATISRGDITYYADSVKGRFTISRDNAKNTVYLQLNSLKPEDTAVYYCNARNNYWWYGPGYVYWGQGTQVTVSS | low polyreactivity |
| QVQLVESGGGLVQAGGSLRLSCAASGRTFSSYAMGWYRQAPGKERELVAAISSGGSTYYADSVKGRFTISRDNAKNTVYLQMNSLKPEDTAVYYCNRRFYYKIGRGIRYFWGQVTQVTVSS | high polyreactivity |
| QVQLVESGGGLVQAGGSLRLSCAASGRIFPANVMGWYRQAPGKERELVATIDNGGGTYYADSVKGRFTISRDNAKNTVYLQMNSLKPEDTAVYYCARDRHVRWGLKMDYWGQGTQVTVSS | low polyreactivity |
| QVQLVESGGGLVQAGGSLRLSCAASGSTYRYYAMGWYRQAHGKERELVAAINSSCGSTYYADSVKGRFTISRDNAKNTVYLQMNSLKPEDTAVYYCATVYAYTGWLTNPREYSRYDYWGQGTQVTVSS | low polyreactivity |
| QVQLVDSCGGLVQAGGSLRLSCHASGLTFFANAMGWYRQEHGKERELVAAITRRGGSTYYADSVKGRFTNSRDNAKNTVYLQMNSLKPEDTAVYYCAAEPRSVPAQYRSGDYWGQGTQVTVSS | high polyreactivity |
| QVQLVESGGGLVQAGGSLRFSCAASGRTFQYYAMGWSRQAPGKERELVAAISQDGGSTYYADSVKGRFTISRDNAKNTVYLQMNSLKPEDTAVYYCAAEVWRSYGYWGQGTQVTVSS | low polyreactivity |
| QVQLVESGGGLVQAGGSLRLSCAASGRNFYLYAMGWYRPAPGKERELVAAITRRGGSTYYADSVKGRFTISRDNAKNTVYLQMNSLKPEDTAVYYCAADRPGTGYSDYDYWGQGTQVTVSS | high polyreactivity |
| QVQLVESGGGLVQAGGSLRLSCAASGSIFLQNAMGWYRQAPGKERELVAAITNGGSTNYADSVKGRFTISRDNAKNTVYLQMNSLKPEDTAVYYCAAERAILSSDKQSLWRFDYWGQGTQVTVSS | low polyreactivity |
| QVQLVESGGGLVQAGGSLRLSCAASGRIFGFYALGWYRQAAGKEWELVAAISQSRGSTYYADSVKGRFTISRDTANNTVYLQMNSLKPEDTAVYYCAKGYKYGKNIYYYWGQGTQVTVSS | high polyreactivity |
| QVQLVESGGGLVQAGGSLRLSCAASGRIFDVYAMGWYRQAPGKERELVAAITWSGTSTYYADSVKGRFTISRDNAKNTVYLQMNSLKPEDTAVYYCAAEVAYTDTEYFWYYYWGQGTQVTVSS | high polyreactivity |
| QVQLVESGGGLVQAGGSLRLSCAASGGIIDWYVMGWYSQARGKERELVAAISYNGGSTYYADSVKGRFTISRDNAKNTGYLQMNSLKPEDTAVYYCAAAVTWPYRYVWYDYWGQGTQVTVSS | low polyreactivity |
| QVQLVESGGGLVNAGGSLRLSCAASGSTFYLYHMGWYRQAPGKEREFFARITWSGGSTYYADSVKGRFTLSRDNAKNTVYLQMNSLKPEDTAVYYCNKVYGQRNSYPDYDYWGQGSQVTVSS | high polyreactivity |

| Sequence | polyreactivity (PSR sort gate) |
| --- | --- |
| QVQLVESGGGLVQAGGSLRLSCAASGRTFDHNAMGWYRQAPGKERELVAAITWSGGITDYADSVKRPFTISRDNAKNTVYLQMNSLKPEDTAVWGQGTQVTVSS | low polyreactivity |
| QVQNEESGGGLVQAGGSLRLSCAASGRNFSSYAMGWYRQAPGKERELVAAISRAGGTYYADSVKGRFTISRDNAKNTVYLQMNSMKPEDTAVYYCAARQSVYGLRSDFYYWGQGTQVTVSS | high polyreactivity |
| QVQLVESGGGLVQAGGSLRLSCAASGFIFSRYAMGWYRQAPGKERELVAAISIGGSTYYADSVKGRFTISRDNAKNTVYVQMNSLKPEDTAVYYCPVDYRHSSSWNAGPWEMYYWGQGTQVTVSS | low polyreactivity |
| QVQLVESGGGLVQAGGSLRLSCAASGSTFFRYAMGWYRQAPGKERELVAAISWSGGTTYYADSVKGRFTISRDNAKNTVYLQMNSLKPEDTAVYYCAVDGGRWGQGTQVTVSS | low polyreactivity |
| QVQLVESGGGLVQAGGSLRLSCAASGSTFDRNVMGWYRQAPGKERELVAAISRVSSTNYADSVKGRFTISRDNAKNTVYLQMNSLKPEDTAVYYFAADGAGSIMNYWGQGTQVTVSS | low polyreactivity |
| QVQLVESGGGLVQAGGSLRLSFAASGRTFPDNAMGWYRQAPGTQRELVATISWSGGSTYYADSVKGRFTISRDNAKNTVYLQMNSLKPEDTAVYYCARDSLQVFYPYASDDYWGQGTQVTVSS | low polyreactivity |
| QVQLVESGGGLVQAGGTLSLSCAASGFIFYRTARGWSRQAPGKDRELVAGISRVGSTYYADSVKGRFTISRDNAKNTVYLQMNSLKPEDTAVDYCAARSGYFYGYGYWGQGTQVTVSS | high polyreactivity |
| QVQLVESGGGLVQAGGRLRLSCPASGSTFYYYGMGWYRQAHGKERELVAAINCSCGTTYYADSVKGRFTISRDNAKNTVYLQLNSLKPEDTAVYYCAAAFYIYGVEGDYWGQGTQVTVSS | low polyreactivity |
| QGQLVESGGGLVQAGGSLRLSCAASGNTFWYYAMGWYRQAPGKEREVVATISSSGGSTSYAHSVKGRFTISRDNAKNTVYLQMNSLKPVDTAVYYCAKPIRYFAAYPLTKGYYYWGQCTQVTVSS | high polyreactivity |
| QVQLVESGGGLDQAGGSLRLSCAASGITFLDNDMGWYRQAPGKERELVAAINSGVSTYYADSVKGRFTISLDNAKNTVYLQMNSLKPEDTAVYYCAADRPDVAGDYWGQGTQVTVSS | low polyreactivity |
| QVQLVESGGGLVQAGGSLRLSCAASGRTSSSYAMGWSRQAPGKERELVASITSSGRTYYADSVKGRFTISRDNAKNTVYLQMNSLKPEDTAVYYCAAPFYRVRGWYARTPYGYWGQGTQVTVSS | high polyreactivity |
| QVQLVESGGGLVQAGGSLRLSCAASGFTFYVNAMGWYRQAPGKERELVAAISSSGTRTYYADSVKGRFTISRDKAKNTVYLQMNSLKPEDTAVYYCAARGQAYSGDRMYYWGQGTQVTVSS | high polyreactivity |
| QVQLVESGGGLVQAGGSLRLSCAASGSIFVLYAMGWYRQAPGKERELVAAITTGGGTNYADSVKGRFTISRDNAKNTVYLQMNSLKPEDTAVYYCNADAYGTPEFTSYAVRYDYWGQGTQVTVSS | low polyreactivity |
| QVQLQESGGGLVQAGGSLRLSCAATGRTFRYNTMGWYRKATGKERELVARITWSGGSTYYADSVKGRFTISRDNAKNTVYLQMNSLKPEDTAVYYCAAVPILVYRWFQSYTGDYDYWGQGTQVTVSS | low polyreactivity |
| QVQLVESGGGLVLAGGSLRLSSAASGSIFYRNAMGWYRQSPGKERQLVATITVNGGRTYYADSVKGRFTISRDIAKNTVYLQMNSLKPEDTAVYYCAKDVHRWYPYDYCGQGTQVTVSS | low polyreactivity |
| QVQLVESGGGLVQAGGSLRLSCAASGSISGYYVMGWYRQAPGKERELVAAITWRGGSTYYADSVKGRFTISRDNAKNTVYLQMNSLKPEDTAVYYCNKVPGRRSTFEYWGQGTQVTVSS | high polyreactivity |
| QVQLVESGGGLVQAGGSLRLSCAASGRIFGRYAMGWYRQAPGKERELVAAIPRNGGSTYADSVNGRFTISRDNAKNTVYLQMNILKPEDTAVYYCAKKRGGKKSGPHDYWGQGTQVTVSS | high polyreactivity |
| QVQLVESGGGLVQAGGSLRLSCAASGRIFSPNAMGWYRQAPGKERELVAAITRGGSTNYADSVKGRFTISRDNAKNTVYLQMNSLKPEDTAVYYCAAQLAKTIRGRGYNSWGQGTKVTVSS | low polyreactivity |
| QVQLVESGGGLVQAGGSLRLSCAASGRIFTSNTMGWYRQAAGKEGELVAAITSSGGSMYYADSVKGRFTISRDNAKNTVYLQMNSLKPEDTAVYYCAADTIGYHYWYDYWGQGTQVTVSS | low polyreactivity |
| QVQLVESGGGLVQAGGSLRLSCAASGRIFGRNPMGWYRQAPGKERELVAAITSRGTRTYYADSVKGRFTISRDNAKNTVYLQMISLKPEDTAVYYCNAAYYHSSSYPDYDYWGQGTQVTVSS | high polyreactivity |
| QVQLVESGGGLVQAGGSLRISWAASGSTFGYYAMGWYRQAPGKDREWVAAISLGGGSTYYADSVKGRFTISRDNAKNTVYLQMNSLKPDDTAVYYCAARPYVRVKWKFNYWGQGTQVTVSS | low polyreactivity |
